Results from patent US20190367592A1 (AC IMMUNE, published 2019).
Substitutions are numbered along the chain they refer to.

B1: hu37D3.v28.F2 (antibody, V domains shown)
VH: EVQLVESGGGLVQPGGSLRLSCAASGLIFRSYGMSWVRQAPGKGLEWVATINSGGTYTYYPDSVKGRFTISRDNSKNTLYLQMNSLRAEDTAVYYCANSYSGAMDYWGQGTLVTVSS
VL: DDVLTQTPLSLPVTPGQPASISCRSSQSIVHTNGNTYFEWYLQKPGQSPQLLIYKVSNRFSGVPDRFSGSGSGTDFTLKISRVEAEDVGVYYCFQGSLVPWTFGQGTKVEIK
B2: hu37D3.v28.F3 (antibody, V domains shown)
VH: B1 VH
VL: B1 VL with G34A
B3: hu37D3.v29.1 (antibody, V domains shown)
VH: B1 VH
VL: B1 VL with D1E, T32S, N35D
B4: hu37D3.v29.3 (antibody, V domains shown)
VH: B1 VH
VL: B1 VL with D1E, T32S, N35E
B5: hu37D3.v29.4 (antibody, V domains shown)
VH: B1 VH
VL: B1 VL with D1E, T32S, N35A
B6: hu37D3.v29.5 (antibody, V domains shown)
VH: B1 VH
VL: B1 VL with D1E, T32S, N35H
B7: hu37D3.v29.6 (antibody, V domains shown)
VH: B1 VH
VL: B1 VL with D1E, T32S, N35K
B8: hu37D3.v29.7 (antibody, V domains shown)
VH: B1 VH
VL: B1 VL with D1E, T32S, N35L
B9: hu37D3.v29.9 (antibody, V domains shown)
VH: B1 VH
VL: B1 VL with D1E, T32S, G34A, N35Q
B10: hu37D3.v29.10 (antibody, V domains shown)
VH: B1 VH
VL: B1 VL with D1E, T32S, G34A, N35E
B11: hu37D3.v29.11 (antibody, V domains shown)
VH: B1 VH
VL: B1 VL with D1E, T32S, G34A, N35A
B12: hu37D3.v29.12 (antibody, V domains shown)
VH: B1 VH
VL: B1 VL with D1E, T32S, G34A, N35H
B13: hu37D3.v29.13 (antibody, V domains shown)
VH: B1 VH
VL: B1 VL with D1E, T32S, G34A, N35K
B14: hu37D3.v29.14 (antibody, V domains shown)
VH: B1 VH
VL: B1 VL with D1E, T32S, G34A, N35L
B15: hu37D3-H9.v30.5 (antibody, V domains shown)
VH: B1 VH
VL: B1 VL with T32S, N33I
B16: hu37D3-H9.v5.1 (antibody, V domains shown)
VH: B1 VH
VL: B1 VL with D1E, T32S, G34A
B17: hu37D3-H9.v30.10 (antibody, V domains shown)
VH: B1 VH
VL: B1 VL with T32S, N33K
B18: hu37D3-H9.v30.11 (antibody, V domains shown)
VH: B1 VH
VL: B1 VL with T32S, N33R
B19: hu37D3.v28.A8 (antibody, V domains shown)
VH: B1 VH
VL: B1 VL with L4M, T32S
B20: hu37D3.v28.A10 (antibody, V domains shown)
VH: B1 VH
VL: B1 VL with L4M, T32S, L98H
B21: hu37D3.v28.A14 (antibody, V domains shown)
VH: B1 VH
VL: B1 VL with L4M, T32S, F38L, L98H
B22: hu37D3.v28.A16 (antibody, V domains shown)
VH: B1 VH
VL: B1 VL with D2V, T32S
B23: hu37D3.v28.A18 (antibody, V domains shown)
VH: B1 VH
VL: B1 VL with D2V, T32S, L98H
B24: hu37D3.v28.A20 (antibody, V domains shown)
VH: B1 VH
VL: B1 VL with D2V, T32S, F38L
B25: hu37D3.v28.A22 (antibody, V domains shown)
VH: B1 VH
VL: B1 VL with D2V, T32S, F38L, L98H
B26: hu37D3.v28.A24 (antibody, V domains shown)
VH: B1 VH
VL: B1 VL with D2V, L4M, T32S
B27: hu37D3.v28.A26 (antibody, V domains shown)
VH: B1 VH
VL: B1 VL with D2V, L4M, T32S, L98H
B28: hu37D3.v28.A28 (antibody, V domains shown)
VH: B1 VH
VL: B1 VL with D2V, L4M, T32S, F38L

Legend:
[1] = target: T1, recombinant human Tau monomer, 2N4R isoform (amino acids 2-441) (human, UniProt P10636-8 2-441); assay: SPR, captured IgG, Tau monomer analyte, 1:1 model; fit-quality column: Yes
T1 construct: range 2-441; N-terminal His-tag removed with TEV protease; also called monomeric Tau
Protocol: (§1) Briefly, IgGs in 1 mL culuture were captured using tip columns that were custom packed with 20 μL MabSelect SuRe resin (Glygen Corp & GE Healthcare). After washing with 1×PBS pH 7.4, IgGs were eluted into 160 μL of 50 mM phosphoric acid pH 3 and neutralized with 12 μL of 20×PBS pH 11. MabSelect SuRe tip columns were stripped in 0.1 M NaOH and regenerated with 1×PBS pH 7.4 for consecutive use of up to 15 times. Purified antibodies in 96-well format were normalized to 0.1 mg/ml using a Hamilton Star liquid handling robot. The “pre-stress” samples were kept at approximately 4° C. and the “post-stress” samples were incubated at 40° C. for two weeks in a PCR machine. Functional stability of the variants was compared by running surface plasmon resonance kinetics experiments with the “pre-stress” and “post-stress” antibody preps. The antibodies were assessed using a human antibody capture CM5 Series S chip generated using the GE Biacore human IgG capture kit and a Biacore T200 instrument. Antibodies diluted to 2 μg/ml were immobilized using a 15 second injection time and 10 μl/min flow rate. Binding to Tau monomer at 0 nM, 26.5 nM and 265 nM, at 25° C., using a flow rate of 40 μl/min, was monitored for a 180 second association phase followed by a 300 second dissociation phase. Samples were run in 10 mM HEPES pH7.4, 150 mM NaCl, 0.05% Tween 20 (HBSP) using a multi-cycle kinetics format. Data was analyzed using BIAevaluation software, fitting a 1:1 binding model. The resulting affinity (KD) values are shown in FIG. 8A-D. A Stability Index was also calculated, using the rationale that affinity-compromised antibodies (due for example to deamidation of key residues) are expected to contribute equally to the IgG capture level (“Ligand Level”) but to contribute less to the measured Tau binding, and that this would be reflected in the experimentally derived value for Rmax. To account for variations in the amount of each antibody captured, Rmax was normalized for the antibody capture level (as measured by “Ligand Level”, Response Units immobilized during antibody capture). Thus Normalized Rmax is calculated as the experimental Rmax (units=RU) divided by the “Ligand Level” (Evaluation output representing the RU captured during the hIgG capture step, units=RU), and Stability Index is calculated here as Normalized Rmax (post-stress) divided by Normalized Rmax (pre-stress).

[2] = target: T1, recombinant human Tau monomer, 2N4R …; assay: SPR; Normalized Rmax post-stress (2 weeks 40 C) / pre-stress
Protocol: as §1

T1 sequence (P10636 other isoform, or with tags, fused parts or gaps limits assumed): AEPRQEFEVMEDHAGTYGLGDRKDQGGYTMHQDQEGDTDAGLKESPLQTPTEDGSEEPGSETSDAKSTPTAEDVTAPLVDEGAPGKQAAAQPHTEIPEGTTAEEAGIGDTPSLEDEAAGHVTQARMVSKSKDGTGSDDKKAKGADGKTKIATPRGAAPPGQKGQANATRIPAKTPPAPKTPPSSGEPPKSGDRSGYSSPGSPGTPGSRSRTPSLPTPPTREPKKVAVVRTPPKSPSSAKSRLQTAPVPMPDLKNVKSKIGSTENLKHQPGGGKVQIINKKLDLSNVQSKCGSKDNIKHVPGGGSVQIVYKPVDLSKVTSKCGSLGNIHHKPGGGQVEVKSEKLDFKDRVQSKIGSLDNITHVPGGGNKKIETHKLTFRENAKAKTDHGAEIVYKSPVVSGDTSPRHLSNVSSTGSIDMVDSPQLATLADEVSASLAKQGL

Binder | Kd [1] | Stability Index [2]
B1 | 1.9 nM | 51%
B2 | 9.5 nM | 70%
B3 | 13.5 nM | 70%
B4 | 5.6 nM | 93%
B5 | 4.9 nM | 76%
B6 | 1.4 nM | 64%
B7 | 1.4 nM | 62%
B8 | 4.6 nM | 90%
B9 | 7.3 nM | 86%
B10 | 17.4 nM | 100%
B11 | 27.9 nM | 67%
B12 | 7 nM | 50%
B13 | 6.7 nM | 79%
B14 | 22 nM | 92%
B15 | 29.1 nM | 80%
B16 | 4 nM | 72%
B17 | 16.1 nM | 84%
B18 | 20.9 nM | 86%
B19 | 1.8 nM | 57%
B20 | 41.8 nM | 37%
B21 | 51.4 nM | 70%
B22 | 3.9 nM | 89%
B23 | 17.3 nM | 83%
B24 | 7.1 nM | 93%
B25 | 27.8 nM | 70%
B26 | 4.7 nM | 95%
B27 | 22.5 nM | 78%
B28 | 11.4 nM | 89%
